Data on one substance can be found in publication PMC6180346, “Two Faces of CwlM, an Essential PknB Substrate, in Mycobacterium tuberculosis” (Cell Reports, 2018).

Read-outs that look alike come from different tables or passages of the source.

In the assay the target is FhaA C-terminal FHA domain (UniProt P71590).

Consider CwlM 378-392 (from UniProt L7N653), for which the “binding against the reference” value is on record as “gained” (sites T382) and “gained” (sites T386).
